According to patent US7223734B2, “Plasma protein-binding ligands” (The American National Red Cross, priority 2002, dated 2007):
One block for each substance: values may come before it. Non-standard residues stand in square brackets, D forms with d. No end group written: not given here.

Legend:
API [1] = molecular target: T1, API (Homo sapiens, UniProt P01009); assay: Primary screening of 6-mer library for API-binding ligands; conditions: bead screening, immunodetection / radiolabel
T1 construct: from tissue; host or cells: human plasma (whole, fibrinogen-depleted or F1-Apo-depleted)
Experimental: Peptide libraries attached to Toyopearl-AF Amino 650M resin or Tentagel resin were evaluated with 14C-labeled fibrinogen and API. All steps were performed at room temperature. Specifically, 20 mg of Toyopearl resin beads or 40 mg of Tentagel resin beads were suspended in 20% methanol for a minimum of 2 hours in 15 ml conical polypropylene tubes (Corning). After rinsing with distilled water, the resin beads were equilibrated in 0.15 M NaCl, 0.020 M sodium citrate, pH 7.3. The resin beads were then blocked for 2 hours with 1% casein (Sigma) in 0.15M NaCl, 0.020M sodium citrate, pH 7.3. Following blocking, the resin beads were centrifuged and the supernatant removed. A solution containing 1 mM of C^14-labeled fibrinogen or 30 μM of C^14-labeled API was applied to the resin beads in the blocking solution in the presence of 0.1% Tween-20 (Sigma). The materials were incubated for 2 hours. The resin beads were washed with 0.15 M NaCl, 0.020 M sodium citrate, 0.05% Tween-20, pH 7.3, in a batch method (fibrinogen ligands) or in disposable BioRad 10 ml columns (API ligands) until radiation counts reached the background level of less than 40 DPM. The resin beads were divided into separate tubes to obtain approximately 5–10 mg of resin beads per sheet. This was accomplished by mixing each aliquot of resin beads with 20–22 ml of 1% low melting agarose solution (Sigma) at less than 40° C., and rapidly pouring the mixture onto GelBond® film sheets (BMA Cat. No. 53749, 16×18 cm; Cat. No. 53759, 12.5×24.5 cm). Spreading of the resin beads to the edge of the gel sheets was prevented by creating frames (about 23 cm×about 10 cm or about 15 cm×about 15 cm) with several layers of masking tape. About 20–22 ml of resin bead-agarose mixture was plated on each GelBond sheet. Special care was taken to spread the beads in an even monolayer to facilitate identification and isolation of individual “hot” beads. The agarose gel was then air-dried overnight and placed, bead side down, on X-ray film (Kodak Biomax MR). The agarose and autoradiography film were exposed for 4–14 days followed by a second exposure of 7 days in an about 20 cm×about 25 cm stainless steel cassette. Afterwards, the films were taped together and marked with several staple holes to ensure proper alignment of beads in agarose to film. After the films were developed, the positive beads that appeared on both films were identified under the microscope and picked by aligning the developed film(s) and agarose gel via the staple holes. Beads to be sequenced were carefully picked by cutting a square trench around the bead with a scalpel, and hydrating this area with distilled water. […]

API [2] = molecular target: T1, API; assay: Purification of API from F1-Apo-depleted plasma on AKVSKG column (Example 7); assay type: binding
Experimental: (§1) Conditions that prevented the binding of albumin from F1-Apo depleted plasma were identified. The capture of albumin by AKVSKG (SEQ ID NO: 45) and D-WWLHIN (SEQ ID NO: 33) can be prevented in the presence of 50 mM caproic acid or 1.0–2.2 M NaCl, respectively. An example for API purification with AKVSKG (SEQ ID NO: 45) is provided. F1-Apo-depleted plasma (10.7 ml) containing 50 mM caproic acid, was applied at 0.4 ml/min (LV=30 cm/h; RT=5.1) onto a 2.0 ml column (CF=0.785 cm^2) that had been equilibrated with 0.14 M NaCl, 0.020 M sodium citrate, pH 7.0 (EQ buffer). After the column was washed with 19 CVs of EQ buffer to baseline, API protein was eluted with 2.0 M NaCl, 0.020 M sodium citrate, pH 6.0. The column was regenerated with 2.0 M guanidine-HCl, 2% Sarkosyl and 2% acetic acid and stored in 20% methanol.

albumin [3] = molecular target: T2, albumin (Homo sapiens, UniProt P02768); assay: Albumin in AKVSKG / D-WWLHIN evaluation (Example 7); assay type: binding; conditions: for binding of albumin in plasma: initial evaluation
T2 construct: from tissue; host or cells: human plasma (fibrinogen-depleted or F1-Apo-depleted)
Experimental: as §1

API [4] = molecular target: T1, API; assay: Purification of API from F1-Apo-depleted plasma on HFVAPH column (Example 6); assay type: binding
Experimental: (§2) Fibrinogen and Apo-A1 lipoprotein-depleted plasma (prepared in Example 5) was loaded at a linear velocity of 30 cm/hour (0.4 ml/min; RT=5.1) onto 2.0 ml column (CF=0.785 cm^2) that had been equilibrated with 0.14 M NaCl, 0.020 M sodium citrate, pH 7.0 (EQ buffer). After the column was washed with EQ buffer and 2.0 M NaCl, 0.020 M sodium citrate, pH 6.0, to baseline, the API protein was eluted with 2.0 M NaCl, 1% Tween 20, 0.020 M sodium citrate, pH 6.0. The column was regenerated with 2.0 M guanidine-HCl, 2% Sarkosyl and 2% acetic acid and stored in 20% methanol. SDS-PAGE analysis of in-process samples (reduced and non-reduced samples) was performed using a Novex 8–16% gradient gel. Not all of the API was quantitatively eluted, but could be eluted using 2M guanidine. Purification of API protein to approximately 70% purity was accomplished with ligand HFVAPH (SEQ ID NO: 46) (isolated from an L-Library).

albumin [5] = molecular target: T2, albumin; assay: Albumin in HFVAPH column run (Example 6); assay type: binding
Experimental: as §2

Apo-A1 lipoprotein = molecular target: T3, Apo-A1 lipoprotein (Homo sapiens, UniProt P02647); assay: Apo-A1 lipoprotein purification from fibrinogen-depleted plasma on peptide resin column (Example 4); assay type: binding
T3 construct: from tissue; host or cells: human plasma (whole or fibrinogen-depleted)
Experimental: Apo-A1 lipoprotein purification was accomplished with D-WWLHIN (SEQ ID NO: 33) peptides and several analogs. Indeed, about 100% Apo-A1 lipoprotein depletion from plasma was repeatedly obtained with D-WWLHAN (SEQ ID NO: 56) and D-WWLHIN (SEQ ID NO: […]). Fourteen milliliters of fibrinogen-depleted plasma was loaded onto a 2.3 ml column (CF=0.785 cm^2) at 0.4 ml/min. (LV=30 cm/H; RT=5.8) that had been equilibrated with 0.14 M NaCl, 0.020 M sodium citrate, pH 7.0 (EQ buffer). After the column was washed with EQ buffer to baseline, Apo-A1 lipoprotein was eluted with 2.0 M NaCl, 1% Tween-20, 0.020M sodium citrate, pH 7.0. The column was regenerated with 2.0 M guanidine-HCl, 2% Sarkosyl, and 2% acetic acid and stored in 20% methanol.

[6] = Elution Pool (without dialysis)

T1 sequence (P01009 25-418): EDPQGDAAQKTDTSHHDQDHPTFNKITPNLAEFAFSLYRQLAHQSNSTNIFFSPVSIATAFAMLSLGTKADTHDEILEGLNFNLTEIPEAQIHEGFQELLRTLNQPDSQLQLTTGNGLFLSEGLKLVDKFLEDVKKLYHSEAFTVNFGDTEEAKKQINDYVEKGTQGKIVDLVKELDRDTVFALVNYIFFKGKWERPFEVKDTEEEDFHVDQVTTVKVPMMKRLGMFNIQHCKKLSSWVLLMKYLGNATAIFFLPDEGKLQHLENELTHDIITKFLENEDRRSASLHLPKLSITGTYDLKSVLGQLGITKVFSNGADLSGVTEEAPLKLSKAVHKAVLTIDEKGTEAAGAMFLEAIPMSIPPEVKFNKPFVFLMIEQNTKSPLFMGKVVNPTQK
T3 sequence (P02647 25-267 limits assumed): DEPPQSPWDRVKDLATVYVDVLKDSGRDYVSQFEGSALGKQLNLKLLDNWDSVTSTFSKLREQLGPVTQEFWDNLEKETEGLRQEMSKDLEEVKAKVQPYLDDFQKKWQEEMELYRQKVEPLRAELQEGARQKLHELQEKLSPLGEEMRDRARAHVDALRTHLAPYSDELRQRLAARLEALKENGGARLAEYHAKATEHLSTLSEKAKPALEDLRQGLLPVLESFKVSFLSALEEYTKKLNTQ

- identified as API-binding peptide ligand from the 6-mer library (API [1]): API-binding
- captured API protein recovered (API [2]; 2.0 M NaCl elution pool, nephelometric analysis): 71%
- API (API [2]; Elution (1% Tween)): 0.05 mg/mL
- Total API (API [2]; Elution (1% Tween)): 0.5 mg
- API (API [2]; Elution (2 M NaCl)): 0.76 mg/mL
- Total API (API [2]; Elution (2 M NaCl)): 7.6 mg
- Total API (API [2]; Flow through + Post Wash, load 12.7 mg): 2.0 mg
- API (API [2]; Flow through + Post Wash, plasma load 10.7 ml, 1.19 mg/ml, 50 mM caproic acid): 0.07 mg/mL
- API (API [2]; Wash (0.3 M NaCl)): 0.11 mg/mL
- Total API (API [2]; Wash (0.3 M NaCl)): 1.3 mg
- API (API [2]; Wash, first 2.0 ml fraction): 0.06 mg/mL
- Total API (API [2]; Wash, first 2.0 ml fraction): 0.1 mg
- API (API [2]; Wash, second 2.0 ml fraction): <0.04 mg/mL
- purity of the API eluate (API [2]; densitometric analysis): 85%
- Albumin (albumin [3]; Elution (1% Tween)): <0.02 mg/mL
- Albumin (albumin [3]; Flow through + Post Wash, nephelometric determination, load 20 mg/ml): 7.8 mg/mL
- Albumin (albumin [3]; Wash (0.3 M NaCl)): 0.63 mg/mL
- Albumin (albumin [3]; Wash, first 2.0 ml fraction): 0.14 mg/mL
- Albumin (albumin [3]; Wash, second 2.0 ml fraction): 0.06 mg/mL
- capture of albumin from F1-Apo depleted plasma (albumin [3]; in the presence of 50 mM caproic acid): prevented
- binding of albumin in plasma (albumin [3]): binds albumin in addition to API protein
Substance: AKVSKG ([dA]KVSKG; not fully specified (residues 2, 3, 4, 5))

- identified as API-binding peptide ligand from the 6-mer library (API [1]): API-binding
- purity of purified API protein (API [4]): approximately 70%
- API (API [4]; 2 M Guanidine #23): 0.1 mg/mL
- Total API (API [4]; 2 M Guanidine #23): 0.4 mg
- Total API (API [4]; Elution Pool (with dialysis)): 1.2 mg
- API (API [4]; Elution Pool (with dialysis), 2.0 M NaCl, 1% Tween 20): 0.15 mg/mL
- Total API (API [4]; [6]): 1.68 mg
- API (API [4]; Elution Pool (without dialysis), 2.0 M NaCl, 1% Tween 20): 0.21 mg/mL
- Total API (API [4]; Flow through, load 7.03 mg): 3.36 mg
- API (API [4]; Flow through, load 9.5 ml, 0.74 mg/ml): 0.21 mg/mL
- API (API [4]; Postwash): <0.04 mg/mL
- Albumin (albumin [5]; 2 M Guanidine #23): <0.02 mg/mL
- Albumin (albumin [5]; Elution Pool (with dialysis)): <0.02 mg/mL
- Albumin (albumin [5]; [6]): <0.02 mg/mL
- Albumin (albumin [5]; Flow through, load 22.6 mg/ml): 12.6 mg/mL
- Albumin (albumin [5]; Postwash): 0.93 mg/mL
- albumin binding from plasma (albumin [5]; in the presence of sodium citrate): does not bind albumin
Substance: HFVAPH

- identified as API-binding peptide ligand from the 6-mer library (API [1]): API-binding
- Apo-A1 lipoprotein depletion from plasma (Apo-A1 lipoprotein): about 100%
- capture of albumin from F1-Apo depleted plasma (albumin [3]; in the presence of 1.0–2.2 M NaCl): prevented
- binding of albumin in plasma (albumin [3]): binds albumin in addition to API protein
Substance: WWLHIN ([dW]WLHIN; not fully specified (residues 2, 3, 4, 5, 6)) [D-WWLHIN]
